Molecular target: T1, HMGA1b-His6 (Homo sapiens, S2G)
T1 chain: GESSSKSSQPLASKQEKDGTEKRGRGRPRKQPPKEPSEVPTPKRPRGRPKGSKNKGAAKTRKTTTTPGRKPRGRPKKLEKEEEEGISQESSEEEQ
Assay: streptavidin plate assay with nickel-HRP detection; poly(dGdC) competitor
Settings: tags: C-terminal L-GSLNS-His6 (vector pHO2d), expressed in E. coli BL21; label: 5'-biotin on 34 nt strand
Description: The detection of HMGA1b-His6 bound to DNA is carried out with horseradish peroxidase modified with nickel (Nickel-HRP), which transforms a fluorogenic substrate. In this assay the spiegelmer displaces the recombinant HMGA1b from its natural binding partner. On account of the 1:1:1 stoichiometry of spiegelmer/rHMGA1b/dsDNA AT Hook, a direct prediction can be made regarding the affinity of the spiegelmers for HMGA1b. The principle of the assay is illustrated in FIG. 5.
To carry out this test spiegelmers in various concentrations and HMGA1b-His6 (0.36 μg/ml; ca. 30 nM) in a total volume of 100 μl are incubated for 10 minutes in a tapered floor plate at room temperature while shaking. The incubation solution also contains: 25 mM Tris/HCl, pH 7.0 (Ambion, Austin, Tex., USA), 140 mM KCl (Ambion, Austin, Tex., USA), 12 mM NaCl (Ambion, Austin, Tex., USA), 0.8 mM MgCl2 (Ambion, Austin, Tex., USA), 0.25 mg/ml BSA (Roche, Mannheim, Germany), 1 mM DTT (Invitrogen, Karlsruhe, Germany), 18-20 μg/ml poly(dGdC) (Sigma, Deisenhofen, Germany)), 0.05% Tween 20 (Roche, Mannheim, Germany). […]
100 μl of the fluorogenic HRP substrate (QuantaBlue, Pierce, Bonn, Germany) are then added to each well and the fluorescence is measured after 15 mins (ex: 340/em: 405 nm).

B1: dsDNA AT hook (dsDNA)
DNA 1: TCGAAAAAAGCAAAAAAAAAAAAAAAAAACTGGC
DNA 2: GCCAGTTTTTTTTTTTTTTTTTTGCTTTTTT
B1: binds.
